Among the data in US20260193326A1 (published 2026) are Kd, koff and kon values, retold here.

Experiment [1] concerns the target Adeno-associated virus serotype 9 (AAV9) (AAV9). Nature of the experiment: SPR, AAV amine-coupled to CM5 chip, nanobody 1-50 nM as analyte. For orientation: Surface plasmon resonance follows binding to a sensor surface in real time, without labels.
In experiment [2] the target is Adeno-associated virus serotype 8 (AAV8) (AAV8). Described as above.
In experiment [3] the target is Adeno-associated virus serotype 5 (AAV5) (AAV5). Described as above.
The target in a further experiment is T1, AAV9 (adeno-associated virus serotype 9).
T1 construct: also called adeno-associated virus serotype 9
The experiment is described as follows: SPR, AAV on CM5 chip.

In another experiment the target is T2, AAV5 (adeno-associated virus serotype 5).
T2 construct: also called adeno-associated virus serotype 5
Nature of the experiment: SPR, AAV on CM5 chip.

In another experiment the target is T3, AAV8 (adeno-associated virus serotype 8).
T3 construct: also called adeno-associated virus serotype 8
Nature of the experiment: SPR, AAV on CM5 chip.

B1: A4-T1 (A4-017 with a C-terminal 6xHis tag) (VHH)
VHH: VQLQESGGGLVQPGGSLRLSCAASGSIFSINLMGWYRQAPGKQRELVATITRGGNTNYAGSVKGRFTISRDNAKNTVYLQMNSLRPEDTAVYYCHVDEVRQSSWTTSNLWGQGTQVTVSS
In experiment [1], B1 showed a Kd of 0.713 nM, a koff of 0.00012 s⁻¹ and a kon of 168000 M⁻¹ s⁻¹. In experiment [2], this molecule returned a Kd of 202 nM, a koff of 0.00148 s⁻¹ and a kon of 7310 M⁻¹ s⁻¹. In experiment [3], this molecule yielded a Kd of 268 nM, a koff of 0.00193 s⁻¹ and a kon of 7200 M⁻¹ s⁻¹.

B2: A4-L1 (A4-017 with a C-terminal IgA hinge followed by a 6xHis tag) (VHH)
VHH: B1 VHH
In experiment [1], B2 displayed a Kd of 0.802 nM, a koff of 0.00011 s⁻¹ and a kon of 137000 M⁻¹ s⁻¹. For the same molecule, in experiment [2], the Kd stood at 220 nM, the koff was found to be 0.00093 s⁻¹ and the kon was determined as 4230 M⁻¹ s⁻¹. In experiment [3], the Kd stood at 569 nM, the koff worked out at 0.00092 s⁻¹ and the kon turned out to be 1620 M⁻¹ s⁻¹.

B3: A4-T2 (A4-017 with a C-terminal GGGGS linker followed by a 6xHis tag) (VHH)
VHH: B1 VHH
In experiment [1], B3 showed a dissociation constant Kd of 0.513 nM, a koff of 0.0001 s⁻¹ and a kon of 195000 M⁻¹ s⁻¹. In experiment [2], the affinity, expressed as Kd, was 102 nM; the koff was determined as 0.00078 s⁻¹; the kon came out at 7650 M⁻¹ s⁻¹. In experiment [3], this molecule showed a dissociation constant (Kd) of 234 nM, a koff of 0.00147 s⁻¹ and a kon of 6280 M⁻¹ s⁻¹.

B4: A4-M1 (A4-017 with an N-terminal amino acid sequence MetAlaGln) (VHH)
VHH: QVQLQESGGGLVQPGGSLRLSCAASGSIFSINLMGWYRQAPGKQRELVATITRGGNTNYAGSVKGRFTISRDNAKNTVYLQMNSLRPEDTAVYYCHVDEVRQSSWTTSNLWGQGTQVTVSS
As to B4, in experiment [1], the affinity, expressed as Kd, was 0.821 nM; the koff was 0.00015 s⁻¹; the kon was 183000 M⁻¹ s⁻¹. Moreover, in experiment [2], the Kd is 196 nM, the koff amounted to 0.0014 s⁻¹ and the kon turned out to be 7150 M⁻¹ s⁻¹. In experiment [3], this molecule gave a Kd of 324 nM, a koff of 0.00189 s⁻¹ and a kon of 5830 M⁻¹ s⁻¹.

B5: A4-M2 (A4-017 with an N-terminal methionine) (VHH)
VHH: B4 VHH
As to B5, in experiment [1], the Kd was 0.874 nM, the koff is 0.00013 s⁻¹ and the kon is 149000 M⁻¹ s⁻¹. For the same molecule, in experiment [2], the Kd is 171 nM, the koff came out at 0.001 s⁻¹ and the kon turned out to be 5830 M⁻¹ s⁻¹. In experiment [3], this molecule had a Kd of 415 nM, a koff of 0.002 s⁻¹ and a kon of 4820 M⁻¹ s⁻¹.

B6: A4-H3 (VHH)
VHH: VQLQASGGGFVQPGGSLRLSCAASGSIFSINLMGWFRQAPGKERELVAVITPGGNTYYADSVKGRFTISRDNSKNTVYLQMNSLRAEDTATYYCHVDEVRQSSWTTSNLWGQGTQVTVSS
In the experiment with AAV9, B6 had a Kd of 4.32 nM, a dissociation rate constant (koff) of 0.00073 s⁻¹ and an on-rate constant (kon) of 169000 M⁻¹ s⁻¹. In the experiment with AAV5, this molecule gave a Kd of 3.05 nM, a koff of 0.00048 s⁻¹ and a kon of 157000 M⁻¹ s⁻¹. For the same molecule, in the experiment with AAV8, the Kd was 9.59 nM, the koff worked out at 0.00128 s⁻¹ and the kon was determined as 134000 M⁻¹ s⁻¹.

As a reminder, the Kd is the equilibrium constant for the complex coming apart. By koff is commonly meant a measure of how fast the partners let go of each other. What is called kon is a measure of how fast the partners come together. Higher therefore signals faster complex formation.
